This is an account of results in article PMC7121760.

In assay [1] the target is α1Cx43 (connexin 43), full-length, membrane-integrated (UniProt P08050). Nature of the assay: sucrose gradient velocity sedimentation.
For assay [2], the target named is β1Cx32 (connexin 32), full-length, membrane-integrated (UniProt P08033). The assay can be described thus: sucrose gradient velocity sedimentation.

Take “α1Cx43 (connexin 43), full-length, membrane-integrated (from UniProt P08050 1-382) (natural protein)”: the stoichiometry N (usually the number of molecules, sites or subunits per partner or assembly) in assay [1] worked out at 6.

In assay [2], “β1Cx32 (connexin 32), full-length, membrane-integrated (from UniProt P08033 1-283) (natural protein)” showed a stoichiometry N of 6.
